In patent publication US20100011462A1, “FLAVIN MONOOXYGENASES AND TRANSCRIPTION FACTORS INVOLVED IN GLUCOSINOLATE BIOSYNTHESIS” (University of Copenhagen, priority 2006, published 2010):
One block for each molecule: values may come before it.

Assays:
At1g65860 = molecular target: T1, At1g65860 (Arabidopsis thaliana, UniProt Q9SS04); assay: Enzymatic activity of heterologously expressed At1g65860 in E. coli spheroplasts; assay type: biochemical; conditions: 1 hour at 30° C.; for oxygenation on the sulfur: tested as substrates at 0.1 mM, 1 mM and 10 mM
T1 construct: (AT1G65860) mRNA, complete cds; made in house; host or cells: E. coli TOP10, arabinose-induced pBAD-TOPO; crude spheroplast preparation, 50 ug total protein
T1 sequence (Q9SS04 1-459): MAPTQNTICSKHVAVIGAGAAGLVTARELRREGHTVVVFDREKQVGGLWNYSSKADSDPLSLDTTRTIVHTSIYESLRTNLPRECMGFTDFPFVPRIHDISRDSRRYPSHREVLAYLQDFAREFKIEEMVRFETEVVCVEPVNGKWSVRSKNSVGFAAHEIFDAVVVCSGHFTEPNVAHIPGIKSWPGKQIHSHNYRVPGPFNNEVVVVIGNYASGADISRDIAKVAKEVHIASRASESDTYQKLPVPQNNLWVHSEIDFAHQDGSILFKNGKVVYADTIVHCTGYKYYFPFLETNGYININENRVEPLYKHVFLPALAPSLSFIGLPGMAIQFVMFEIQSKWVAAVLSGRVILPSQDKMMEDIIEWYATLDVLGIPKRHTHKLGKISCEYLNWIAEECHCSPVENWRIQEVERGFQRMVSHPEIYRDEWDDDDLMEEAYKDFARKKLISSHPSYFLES
Description: FIG. 3—Enzymatic activity of heterologously expressed At1g65860 in E. coli spheroplasts using the arabinose inducible pBad TOPO® TA Expression system (Invitrogen). 50 μg total E. coli protein were used for each assay and allowed to proceed for 1 hour at 30° C. 4-methylsulfinylbutyl glucosinolate and desulfo-methylsulfinylbutyl glucosinolate production were quantified by HPLC (monitored at 229 nm). Compound identities were confirmed by comparison of both retention times, UV light absorption profiles and mass by LC/MS with those of authentic standards.
At1g65860 pBAD-TOPO constructs and a vector control (empty pBAD-TOPO) were transformed into the E. coli strain TOP10 (Invitrogen). Single colonies were grown overnight in Luria broth (LB) with 100 μg/ml ampicillin. One milliliter of the overnight culture was used to inoculate 100 ml of LB medium supplemented with 100 μg/ml ampicillin and the culture was grown at 37° C., 250 rpm to OD600=0.5, at which time arabinose (final conc. 0.02%) was added. The culture was grown at 28° C., 250 rpm for 16 h.
Following arabinose induction, spheroplasts of E. coli cells were prepared. The culture was chilled on ice, pelleted at 2500 g for 10 min, followed by resuspension by sequential addition of 8.3 ml 200 mM Tris/HCl, pH 7.6, 1.42 g sucrose, 16.7 μL […], 41.7 μL 0.1M phenylmethylsulfonyl fluoride, 33.3 μL lysozyme (50 mg/ml) and finally 8.31 mL ice-cold water with slow stirring. After 30 min incubation at 4° C. with slow stirring, 166 μL 1M Mg(OAc)2 was added and membranes were pelleted at 3000 g for 10 min at 4° C. Pellet was resuspended in 1800 μL 10 mM Tris/HCl pH 7.6/14 mM Mg(OAc)2/60 mM KOAc. The suspension was homogenized in a Potter-Elvehjem followed by the addition of 5 μL RNAse (10 mg/ml) and 5 μL DNAse (5 mg/ml) and slowly stirred for 30 min at 4° C. 235 μL 87% glycerol was added and the spheroplasts were stored at −80° C. for several weeks without loss of activity.
The 100 ul assay solution contained substrate and spheroplasts corresponding to 50 ug total E. coli protein in a 0.1 M Tricine at pH 7.9, 0.25 mM NADPH buffer. The reaction was allowed to proceed for 1 hour at 30° C. and terminated by the addition of 100 μL methanol and centrifuged at 5000 g for 2 min. The supernatant was moved to new tubes followed by lyophilization to dryness and finally redissolved in 50 μL water.
4-methylthiobutyl glucosinolate and desulfo 4-methylthiobutyl glucosinolate were used as substrates with final concentrations in the assay as given in FIG. 3. 4-methylthiobutyl oxime, dihomomethionine, methionine were tested as substrates at 0.1 mM, 1 mM and 10 mM final concentrations. […]

At1g12140 = molecular target: T2, At1g12140 (Arabidopsis thaliana, UniProt A8MRX0); assay: Heterologous expression of At1g12140 in E. coli, desulfo-glucosinolate substrate mix; assay type: biochemical; conditions: desulfo-glucosinolates from Arabidopsis Col-0 seeds as substrate mix
T2 construct: made in house; host or cells: E. coli
T2 sequence (A8MRX0 1-459): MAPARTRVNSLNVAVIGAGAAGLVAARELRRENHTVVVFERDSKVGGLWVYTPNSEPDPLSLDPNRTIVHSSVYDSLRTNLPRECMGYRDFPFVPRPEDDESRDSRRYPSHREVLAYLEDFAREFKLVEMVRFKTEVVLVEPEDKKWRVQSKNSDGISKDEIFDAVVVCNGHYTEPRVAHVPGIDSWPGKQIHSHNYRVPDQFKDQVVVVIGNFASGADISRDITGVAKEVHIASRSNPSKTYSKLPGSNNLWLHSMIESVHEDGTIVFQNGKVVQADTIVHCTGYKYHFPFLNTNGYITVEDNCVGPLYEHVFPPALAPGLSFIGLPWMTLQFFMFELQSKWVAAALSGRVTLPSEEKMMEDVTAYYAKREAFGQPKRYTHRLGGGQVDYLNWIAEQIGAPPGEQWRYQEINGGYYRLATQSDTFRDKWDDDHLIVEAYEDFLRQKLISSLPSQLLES
Source text: (§1) FIG. 15—Heterologous expression of At1g12140 in E. coli using desulfo-glucosinolates from glucosinolates from Arabidopsis Col-0 seeds as substrate mix.

[1] = Activity of FMOs of the invention in E. coli or in seeds using a variety of substrates; assay type: biochemical, Arabidopsis thaliana; conditions: for S-oxygenation activity: desulfo and intact glucosinolates; for substrate specificity: methylthio glucosinolates in Arabidopsis
Source text: FIG. 11—Heterologous expression of At1g62560 in E. coli using 4MTB as substrate, with an empty vector as control.
FIG. 13—Heterologous expression of At1g62540 in E. coli using 4MTB as substrate, with an empty vector as control.
as §1
FIG. 17—Heterologous expression of At1g62570 in E. coli using desulfo-glucosinolates from glucosinolates from Arabidopsis Col-0 seeds as substrate mix, with an empty vector as control.
FIGS. 11-18 show the activity of At1g62560, At1g65860, At1g62540, At1g12140 and At1g62570 in E. coli or in seeds using a variety of substrates.

[2] = system: Arabidopsis thaliana Col-0; assay: 4MTB and 4MSB levels in At1g65860 and At1g62560 overexpression lines; assay type: in vivo; conditions: expressed constitutively
Description: FIG. 5—4-methylthiobutyl glucosinolate levels in rosette leaves from 24 day old wild type columbia and transgenic At1g65860 and At1g62560 overexpression lines. Quantities are given in nmol/mg fresh weight ±one standard deviation and are the mean of extractions from four individual plants. Two independent lines were analysed for each construct. The lines H and AT for 35S overexpression of At1g65860 and line 9 and 11 for 35S overexpression of At1g62560.
FIG. 12—4-6 fold increase in 4MSB levels in seeds in overexpressors of At1g62560 and At1g65860.
In another separate experiment a mix of heterozygous and homozygous 35S:At1g62560 and 35S:At1g65860 as well as Arabidopsis thaliana, ecotype Columbia, were used.
Three-four leaves (20-80 mg) were harvested from each plant and the material freeze-dried O/N. After adding one ball bearing to each tube, the tissue was homogenized by shaking at a frequency of 30 s^−1 for one min on a Retsch Mixer Mill 303 (Retsch, Haan, Germany). 250 μl of 85% methanol was added to each tube and the entire box vortexed for 30 s. For glucosinolate extraction from seeds (10-20 mg) 250 μl of 85% methanol was added before homogenization. The samples were mixed for two minutes by vortexing. […]

oxygenation on the sulfur (At1g65860): No oxygenation on the sulfur
Molecule: CSCCCC/C=N\O [4-methylthiobutyl oxime]

production of 4MSB from 4MTB (At1g65860; 50 μg total E. coli protein, HPLC 229 nm): production of 4MSB from 4MTB
Molecule: CSCCCC/C(=N/OS(=O)(=O)O)S[C@@H]1O[C@H](CO)[C@@H](O)[C@H](O)[C@H]1O [4MTB, 4-methylthiobutyl glucosinolate]

S-oxygenation activity (At1g12140): high activity
Molecule: CSCCCCCCCCC(=NOS(=O)(=O)O)S[C@@H]1O[C@H](CO)[C@@H](O)[C@H](O)[C@H]1O [8MTO, 8-methylthiooctyl glucosinolate]

oxygenation on the sulfur (At1g65860): No oxygenation on the sulfur
Molecule: CSCCCCC(N)C(=O)O (centres unmarked) [dihomomethionine]

oxygenation on the sulfur (At1g65860): No oxygenation on the sulfur
Molecule: CSCC[C@H](N)C(=O)O [methionine]

B1: At1g65860: flavin-containing monooxygenase (FMO) from A. thaliana, SEQ ID NO 4; also its overexpression in planta (protein, listed as Arabidopsis thaliana)
chain: MAPTQNTICSKHVAVIGAGAAGLVTARELRREGHTVVVFDREKQVGGLWNYSSKADSDPLSLDTTRTIVHTSIYESLRTNLPRECMGFTDFPFVPRIHDISRDSRRYPSHREVLAYLQDFAREFKIEEMVRFETEVVCVEPVNGKWSVRSKNSVGFAAHEIFDAVVVCSGHFTEPNVAHIPGIKSWPGKQIHSHNYRVPGPFNNEVVVVIGNYASGADISRDIAKVAKEVHIASRASESDTYQKLPVPQNNLWVHSEIDFAHQDGSILFKNGKVVYADTIVHCTGYKYYFPFLETNGYININENRVEPLYKHVFLPALAPSLSFIGLPGMAIQFVMFEIQSKWVAAVLSGRVILPSQDKMMEDIIEWYATLDVLGIPKRHTHKLGKISCEYLNWIAEECHCSPVENWRIQEVERGFQRMVSHPEIYRDEWDDDDLMEEAYKDFARKKLISSHPSYFLES
S-oxygenation activity [1]: S-oxygenation activity
substrate specificity [1]: broad specificity towards all methylthio (MT) glucosinolates
4-methylthiobutyl glucosinolate levels [2]: reduced

B2: At1g62560: flavin-containing monooxygenase (FMO) from A. thaliana, SEQ ID NO 2; also its overexpression in planta (protein, listed as Arabidopsis thaliana)
chain: MAPAQNQITSKHVAVIGAGPAGLITSRELRREGHSVVVFEREKQVGGLWVYTPKSDSDPLSLDPTRSKVHSSIYESLRTNVPRESMGVRDFPFLPRFDDESRDARRYPNHREVLAYIQDFAREFKIEEMIRFETEVVRVEPVDNGNWRVQSKNSGGFLEDEIYDAVVVCNGHYTEPNIAHIPGIKSWPGKQIHSHNYRVPDPFENEVVVVIGNFASGADISRDIAKVAKEVHIASRAREPHTYEKISVPQNNLWMHSEIDTTHEDGSIVFKNGKVIFADSIVYCTGYKYNFPFLETNGYLRIDEKRVEPLYKHVFPPALAPGLAFVGLPAMGIVFVMFEIQSKWVAAVLSGRVTLPSTDKMMEDINAWYASLDALGIPKRHTHTIGRIQSEYLNWVAKESGCELVERWRGQEVDGGYLRLVAHPETYRDEWDDDELIEEAYNDFSRKKLISVDPSYYLENGR
S-oxygenation activity [1]: S-oxygenation activity
substrate specificity [1]: broad specificity towards all methylthio (MT) glucosinolates
4-methylthiobutyl glucosinolate levels [2]: reduced
